Measurements taken from publication PMC5770967, “Phosphorylation of the IDP KID Modulates Affinity for KIX by Increasing the Lifetime of the Complex” (Biophysical Journal, 2017).
Where two headings read alike, the source gives them in different places. Non-standard residues stand in square brackets, D forms with d. No end group written: not given here. *: point of attachment. FITC = O=C1OC2(c3ccc(O)cc3Oc3cc(O)ccc32)c2ccc(NC(=S)*)cc21; pS = N[C@@H](COP(=O)(O)O)C(=O)O

B1: FITC-KID (kinase inducible domain of CREB, residues 116-146, unphosphorylated, N-terminus labeled with FITC) (peptide, UniProt P15337-1 116-146, looked up)
peptide: {FITC}-DSVTDSQKRREILSRRPSYRKILNDLSSDAP
notes: also called unphosphorylated KID; source: synthetic peptide, bought: Biomatik
B2: FITC-KID-S133E (KID of CREB, residues 116-146, S133E, N-terminus labeled with FITC) (peptide, UniProt P15337-1 116-146, looked up)
peptide: {FITC}-DSVTDSQKRREILSRRPEYRKILNDLSSDAP
notes: kinase inducible domain (KID) of CREB, UniProt P15337, residues 116-146, with S133E; also called the phosphomimetic; source: synthetic peptide, bought: Biomatik
B3: FITC-pKID (phosphorylated KID of CREB, residues 116-146, N-terminus labeled with FITC) (peptide, UniProt P15337-1 116-146, looked up)
peptide: {FITC}-DSVTDSQKRREILSRRP[pS]YRKILNDLSSDAP
notes: kinase inducible domain (KID) of CREB, UniProt P15337, residues 116-146 (31 residues), phosphorylated at S133; source: synthetic peptide, bought: Biomatik

How the values were obtained:
KIX KIX [1] = target: KIX KIX (UniProt P45481); assay: NMR; conditions: cited from earlier work
Sequence of KIX KIX (P45481 586-665): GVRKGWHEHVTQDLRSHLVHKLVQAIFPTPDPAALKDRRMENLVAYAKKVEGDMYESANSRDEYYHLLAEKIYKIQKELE

KIX KIX [2] = target: KIX KIX (UniProt P45481); conditions: cited from earlier work
[3] = target: T1, KIX domain of CREB-binding protein (UniProt P45481 586-665); assay: fluorescence polarisation; fluorescence anisotropy equilibrium binding; 1 uM FITC-peptide with varying KIX, 30 min, 10 C; 100 mM sodium phosphate pH 7.5, 0.05% Tween; conditions: both partners purified
T1 sequence (P45481 586-665): as above

[4] = target: T1, KIX domain of CREB-binding protein; assay: stopped-flow fluorescence out-competition dissociation kinetics; KIX:FITC-(p)KID complex rapidly mixed with unlabeled cMybTAD; single exponentials; asymptote gives k_diss; 10 C; 100 mM sodium phosphate pH 7.5, 0.05% Tween; conditions: both partners purified
[5] = target: T1, KIX domain of CREB-binding protein; assay: as above; conditions: both partners purified; remark: listed apart in the source
[6] = target: T1, KIX domain of CREB-binding protein; assay: stopped-flow fluorescence association kinetics; pseudo-first-order, KIX in 10-fold or larger excess over FITC-peptide; double exponential fits; 10 C; 100 mM sodium phosphate pH 7.5, 0.05% Tween; conditions: both partners purified

| Molecule | Kd (KIX KIX [1]) [µM] | Kd (KIX KIX [2]) [µM] | Kd [3] [µM] | koff [4] [s⁻¹] | half-life of the complex [5] [s] | k_ass,fast (fast phase of association) [6] [M⁻¹ s⁻¹] | k_ass,slow (slow phase of association) [6] [s⁻¹] |
| --- | --- | --- | --- | --- | --- | --- | --- |
| pKID KID (from UniProt P15337) | 1.3 |  |  |  |  |  |  |
| pKID29 KID (from UniProt P16220) |  | 8.3 |  |  |  |  |  |
| B1 |  |  | 29 ± 1 | 66.3 ± 4.9 | ~0.01 | 7.6e+06 ± 800000 | 21.2 ± 2.4 |
| B2 |  |  | 12.3 ± 0.5 | 35.6 ± 2.2 |  | 4.4e+06 ± 200000 | 17 ± 1 |
| B3 |  |  | 0.11 | 0.81 ± 0.01 | ~1 | 7.3e+06 ± 300000 | 24.2 ± 1.4 |
